The values that follow come from patent US20240132615A1 (ICHNOS SCIENCES, published 2024).

Assay [1] deals with T1, human BCMA on multiple myeloma cells (human, UniProt Q02223 1-184).
T1 construct: whole, on cells; Here the protein is the cell lines' own; also called B-cell maturation antigen; TNFRSF17
T1 sequence (looked up): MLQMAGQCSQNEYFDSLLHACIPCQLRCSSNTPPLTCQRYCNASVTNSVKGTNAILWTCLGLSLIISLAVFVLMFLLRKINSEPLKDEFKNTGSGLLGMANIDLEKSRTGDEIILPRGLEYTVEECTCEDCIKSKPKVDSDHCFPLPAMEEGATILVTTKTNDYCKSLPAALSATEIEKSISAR
In words: flow cytometry on NCI-H929 cells (BCMA++CD38++), anti-human IgG secondary, RFI.
Protocol: (§1) The plates were centrifuged at 350 g for 3 min at 4° C. and cells washed twice with DPBS.
(§2) Cells were resuspended in 25 μl of LIVE/DEAD Fixable Near-IR Dead Cell Stain (ThermoFisher Scientific, L34976) diluted at 1/1′000 in DPBS and incubated 20 min at 4° C. […] Cells were then washed twice and resuspended in 25 μl of FACS buffer with azide. Samples were acquired on an iQue Screener Plus instrument (IntelliCyt). Cells were gated based on size on FSC vs SSC and debris, doublets and dead cells were excluded. Population was analyzed for APC-geometric mean (geomean) fluorescence intensity (MFI) using iQue Forecyt® software. Only samples showing at least 2′000 cells in final gate were considered in the further steps of the analysis. Relative geometric mean fluorescence intensity (RFI) was calculated by subtracting the MFI of the negative control from the MFI of the sample at each dilution. RFI values were finally plotted using Prism software (GraphPad). Equilibrium dissociation constant values (KD) and maximum binding were determined by using one-site binding curve fitting on non-transformed data (Prism).

Assay [2] has as its target T1, human BCMA on multiple myeloma cells. The assay is described as follows: flow cytometry on KMS-12-BM cells (BCMA+CD38+), anti-human IgG secondary, RFI. For orientation: In flow cytometry, cells or beads pass a laser one at a time.
Protocol: as §1, §2
In assay [3] the target is T2, human CD3 on primary human T cells (human, UniProt P07766 23-207; P04234 22-171; P09693 23-182; P20963 22-164).
T2 construct: whole, on cells; Endogenous CD3 complex on isolated human T cells, gated CD38-negative; also called CD3-expressing T cells; human CD38 negative T cells
In words: flow cytometry on isolated human T cells (CD38-negative gate), anti-human IgG secondary, relative fluorescence (RFI).

The target in assay [4] is T1, human BCMA on multiple myeloma cells. In words: flow cytometry on NCI-H929 CD38 KO cells; one-site binding fit.
Protocol: as §1, §2
Assay [5] has the same target. The assay is described as follows: flow cytometry on NCI-H929 WT cells; one-site binding fit.
Protocol: as §1, §2
Assay [6] shares this target. In words: flow cytometry on KMS-12-BM cells; one-site binding fit.
Protocol: as §1, §2
Assay [7] shares this target. In words: flow cytometry on NCI-H929 CD38 KO cells (BCMA++CD38-), anti-human IgG secondary, RFI.
Protocol: as §1, §2
Assay [8] has as its target T2, human CD3 on primary human T cells. In words: flow cytometry on isolated human primary T cells gated CD38-negative; one-site binding fit.
Protocol: Cells were thawed in pre-warmed complete RPMI medium (RPMI supplemented with 10% heat inactivated fetal calf serum, 1% L-Glutamine, 1% Non-essential Amino Acids, 1% Sodium Pyruvate, and 1% Penicillin/Streptomycin) and rested overnight at 1.5×10⁶ cells/ml. Cells were plated at 1×10⁵ cells/well in 96-well round-bottom plates. The plates were centrifuged at 350 g for 3 min at 4° C. and cells washed twice with DPBS. Cells were resuspended in 25 μl of LIVE/DEAD Fixable Near-IR Dead Cell Stain (ThermoFisher Scientific, L34976) diluted at 1/1′000 in DPBS and incubated 20 min at 4° C. […] Cells were then washed twice and resuspended in 25 μl of FACS buffer with azide. Samples were acquired on an iQue Screener Plus instrument (IntelliCyt). Cells were gated based on size on FSC vs SSC and debris, doublets and dead cells were excluded. Finally, viable cells were gated on CD38-T cells. The population was analyzed for PE-geometric mean (geomean) fluorescence intensity (MFI) using iQue Forecyt© software. Only samples showing at least 2′000 cells in final gate were considered in the further steps of the analysis. Relative geometric mean fluorescence intensity (RFI) was calculated per donor by subtracting the mean of MFI of the negative control from the MFI of the sample at each dilution. RFI values were finally plotted using Prism software (GraphPad). Equilibrium dissociation constant values (KD) and maximum binding were determined by using one-site binding curve fitting on non-transformed data (Prism). […] Two independent experiments were performed.
Assay [9] concerns the target T1, human BCMA on multiple myeloma cells. The assay is described as follows: flow cytometry on MOLP-8 cells; one-site binding fit.

T2 sequence (P07766 23-207, chain 1 of 4): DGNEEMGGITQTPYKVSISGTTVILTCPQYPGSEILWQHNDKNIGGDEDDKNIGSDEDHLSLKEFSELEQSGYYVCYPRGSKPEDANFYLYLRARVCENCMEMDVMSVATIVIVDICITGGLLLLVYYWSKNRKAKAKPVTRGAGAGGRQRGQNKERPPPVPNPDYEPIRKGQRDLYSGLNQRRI
T2 sequence (P04234 22-171, chain 2 of 4): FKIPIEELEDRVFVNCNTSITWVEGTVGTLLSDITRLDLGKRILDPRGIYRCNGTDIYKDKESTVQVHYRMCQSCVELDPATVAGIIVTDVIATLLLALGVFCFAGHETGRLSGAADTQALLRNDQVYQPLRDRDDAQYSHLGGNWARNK
T2 sequence (P09693 23-182, chain 3 of 4): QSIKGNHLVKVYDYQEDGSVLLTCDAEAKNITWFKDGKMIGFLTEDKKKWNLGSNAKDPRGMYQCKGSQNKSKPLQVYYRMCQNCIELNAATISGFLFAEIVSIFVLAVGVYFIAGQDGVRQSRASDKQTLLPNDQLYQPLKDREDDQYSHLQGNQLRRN
T2 sequence (P20963 22-164, chain 4 of 4): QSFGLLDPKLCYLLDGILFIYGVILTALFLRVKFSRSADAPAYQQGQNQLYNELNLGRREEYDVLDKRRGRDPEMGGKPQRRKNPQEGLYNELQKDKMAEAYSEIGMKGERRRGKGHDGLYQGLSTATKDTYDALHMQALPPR

B1: teclistamab (bispecific antibody)
chain 1: not shown
chain 2: SYVLTQPPSVSVAPGQTARITCGGNNIGSKSVHWYQQPPGQAPVVVVYDDSDRPSGIPERFSGSNSGNTATLTISRVEAGDEAVYYCQVWDSSSDHVVFGGGTKLTVLGQPKAAPSVTLFPPSSEELQANKATLVCLISDFYPGAVTVAWKGDSSPVKAGVETTTPSKQSNNKYAASSYLSLTPEQWKSHRSYSCQVTHEGSTVEKTVAPTECS
chain 3: EVQLVESGGGLVQPGGSLRLSCAASGFTFNTYAMNWVRQAPGKGLEWVARIRSKYNNYATYYAASVKGRFTISRDDSKNSLYLQMNSLKTEDTAVYYCARHGNFGNSYVSWFAYWGQGTLVTVSSASTKGPSVFPLAPCSRSTSESTAALGCLVKDYFPEPVTVSWNSGALTSGVHTFPAVLQSSGLYSLSSVVTVPSSSLGTKTYTCNVDHKPSNTKVDKRVESKYGPPCPPCPAPEAAGGPSVFLFPPKPKDTLMISRTPEVTCVVVDVSQEDPEVQFNWYVDGVEVHNAKTKPREEQFNSTYRVVSVLTVLHQDWLNGKEYKCKVSNKGLPSSIEKTISKAKGQPREPQVYTLPPSQEEMTKNQVSLTCLVKGFYPSDIAVEWESNGQPENNYKTTPPVLDSDGSFLLYSKLTVDKSRWQEGNVFSCSVMHEALHNHYTQKSLSLSLGK
chain 4: QTVVTQEPSLTVSPGGTVTLTCRSSTGAVTTSNYANWVQQKPGQAPRGLIGGTNKRAPGTPARFSGSLLGGKAALTLSGVQPEDEAEYYCALWYSNLWVFGGGTKLTVLGQPKAAPSVTLFPPSSEELQANKATLVCLISDFYPGAVTVAWKADSSPVKAGVETTTPSKQSNNKYAASSYLSLTPEQWKSHRSYSCQVTHEGSTVEKTVAPTECS
Consider B1, for which the “EC50 (read off the curve)” value in [1] was approximately 30 nM; in assay [2] it was approximately 20 nM; in assay [3] it was approximately 20 nM; in assay [7], approximately 40 nM. Besides, the Kd in [4] turned out to be 46.3 nM; in assay [5], 30.4 nM; in [6] it was 21.8 nM; in [8] it was 18 nM; in [9] it was 95.8 nM.

A word on the EC50 (read off the curve): it is the concentration at which the effect is half-maximal. Lower therefore signals greater potency. As usually defined, the Kd is the free concentration of one partner at which half of the binding sites on the other are occupied at equilibrium, for simple one-to-one binding.
